Assay results from the supplement of paper PMC7125110.
± gives the standard error. This sample holds only a part of the variants without activity.

B1: glmS ribozyme (parent)
chain: AUAAAAGCGCCAGAACUACAGAAAUGUAGUUGACGAGGAGGAGGUUUAUCGAAUUUUCGGCGGAUGCCUCCAAA

Assays:
Conditions in all cases: with glucosamine-6-phosphate
glucosamine-6-phosphate [1] = variants of: B1; assay: self-cleavage kobs at 640 uM GlcN6P; higher = faster cleavage; RNA array
Outline: (§1)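 Barcoded ribozyme variants were transcribed in situ on sequenced MiSeq chips by E. coli RNA polymerase. At 37 °C, a hybridised Cy3 probe tracked them while glucosamine-6-phosphate (40 μM to 10 mM) in HEPES/KCl/Mg(OAc)2 buffer flowed in and tiles were imaged over ~14 h. Per-tile medians of signals normalised to baseline and to non-cleaving reference variants were fit to one- or two-exponential decays, giving kobs. kcat and KM came from weighted Michaelis–Menten fits across concentrations.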

glucosamine-6-phosphate [2] = variants of: B1; assay: self-cleavage kobs at 2500 uM GlcN6P; higher = faster cleavage; RNA array
Outline: as §1

glucosamine-6-phosphate [3] = variants of: B1; assay: self-cleavage kobs at 10000 uM GlcN6P; higher = faster cleavage; RNA array
Outline: as §1

Variant	self-cleavage kobs at 640 uM GlcN6P (glucosamine-6-phosphate [1])	self-cleavage kobs at 2500 uM GlcN6P (glucosamine-6-phosphate [2])	self-cleavage kobs at 10000 uM GlcN6P (glucosamine-6-phosphate [3])
G43A G62U C67A	< 1e-05 s⁻¹	< 1e-05 s⁻¹	–
A14U G29U C50G	8.61e-05 ± 3.2e-05 s⁻¹	–	–
G35C G51U A64C	< 1e-05 s⁻¹	< 1e-05 s⁻¹	–
A6C G43C C71U	< 1e-05 s⁻¹	–	–
A12G G40U G41C	< 1e-05 s⁻¹	–	–
A33C C50A C68A	< 1e-05 s⁻¹	< 1e-05 s⁻¹	–
A36G G62A	< 1e-05 s⁻¹	< 1e-05 s⁻¹	< 1e-05 s⁻¹
A6G U31G A53G	4.09e-05 ± 1.9e-05 s⁻¹	0.000162 ± 3.5e-05 s⁻¹	–
G37A A42C C61A	< 1e-05 s⁻¹	–	–
G44A A53U C67A	0.00108 ± 0.00027 s⁻¹	0.00591 ± 0.0013 s⁻¹	–
A14U C34U A52G	< 1e-05 s⁻¹	< 1e-05 s⁻¹	< 1e-05 s⁻¹
A6G C10U A14G C34U U46G U57A	< 1e-05 s⁻¹	–	–
G9U G44A A64C	< 1e-05 s⁻¹	–	–
C11U C58A A64C	< 1e-05 s⁻¹	–	–
A15G C58A C68G	0.000265 ± 8.6e-05 s⁻¹	–	–
G35C G38A C68G	0.00152 ± 0.00066 s⁻¹	–	–
G35C G43U C61U	< 1e-05 s⁻¹	< 1e-05 s⁻¹	–
C11U G13C G37C	< 1e-05 s⁻¹	< 1e-05 s⁻¹	< 1e-05 s⁻¹
A39U G43C C70G	< 1e-05 s⁻¹	< 1e-05 s⁻¹	–
A6U C34U G40C G59C	< 1e-05 s⁻¹	–	–
G44A U45C C61A	< 1e-05 s⁻¹	< 1e-05 s⁻¹	–
U47C U69C	0.000374 ± 0.00011 s⁻¹	0.00197 ± 0.00045 s⁻¹	–
G32A U69A C70G	4.23e-05 ± 1.9e-05 s⁻¹	–	–

Variant	self-cleavage kobs at 640 uM GlcN6P (glucosamine-6-phosphate [1])	self-cleavage kobs at 2500 uM GlcN6P (glucosamine-6-phosphate [2])	self-cleavage kobs at 10000 uM GlcN6P (glucosamine-6-phosphate [3])
C10U U57C	< 1e-05 s⁻¹	–	< 1e-05 s⁻¹
C16A G63U U69A	0.000106 ± 3.1e-05 s⁻¹	–	–
C11G A53C G59U U69A	< 1e-05 s⁻¹	–	–
G7U C10G G13C G44A U69G	< 1e-05 s⁻¹	–	–
G40A A52G C71A	0.000146 ± 2.8e-05 s⁻¹	0.000203 ± 7.7e-05 s⁻¹	–
A15G G44U A52C U69C	< 1e-05 s⁻¹	–	–
U45G U47G C71U	0.000978 ± 0.00031 s⁻¹	–	–
G41U G51C U69C	< 1e-05 s⁻¹	< 1e-05 s⁻¹	–
G9A A14U	< 1e-05 s⁻¹	< 1e-05 s⁻¹	–
A42U G59C G60A	< 1e-05 s⁻¹	–	–
A15U U49G A64C	< 1e-05 s⁻¹	–	–
C34U G38U U46C U56G G60U	< 1e-05 s⁻¹	–	–
A33U G37A G59A	< 1e-05 s⁻¹	–	–
C8U A42U U49G A52G U57G	< 1e-05 s⁻¹	< 1e-05 s⁻¹	–
A15G U30A A39U	0.00404 ± 0.0016 s⁻¹	0.00871 ± 0.0024 s⁻¹	0.0247 ± 0.0076 s⁻¹
A53C G60A G66A	< 1e-05 s⁻¹	–	–
C11A A12C A53G U56G	6.8e-05 ± 1.5e-05 s⁻¹	0.000323 ± 6.9e-05 s⁻¹	–
G38U G44C U56C	< 1e-05 s⁻¹	< 1e-05 s⁻¹	–
C34U G41C A52U G60C U69G	< 1e-05 s⁻¹	–	< 1e-05 s⁻¹
G40A G41C A42C C70U	< 1e-05 s⁻¹	–	–
A14U U30C C70G	9.88e-05 ± 3e-05 s⁻¹	8.37e-05 ± 2.2e-05 s⁻¹	–
A6G U56C C61G	< 1e-05 s⁻¹	< 1e-05 s⁻¹	–
G7A A33C G66C	< 1e-05 s⁻¹	–	–

Variant	self-cleavage kobs at 640 uM GlcN6P (glucosamine-6-phosphate [1])	self-cleavage kobs at 2500 uM GlcN6P (glucosamine-6-phosphate [2])	self-cleavage kobs at 10000 uM GlcN6P (glucosamine-6-phosphate [3])
A6U C16U C61U C71U	< 1e-05 s⁻¹	< 1e-05 s⁻¹	–
A14G G29U A39U	0.00293 ± 0.0011 s⁻¹	–	–
A42U C61G G66A	< 1e-05 s⁻¹	–	–
A6U C11U U31C G40A G44A U55A	< 1e-05 s⁻¹	–	–
C16U G32U A36C C58U	< 1e-05 s⁻¹	–	–
G7C G9U C11G C16G U30G G43U G44U C61U	< 1e-05 s⁻¹	< 1e-05 s⁻¹	< 1e-05 s⁻¹
C34A G59U G60A G63U	< 1e-05 s⁻¹	–	–
G29A G32A G66A	0.000119 ± 2.8e-05 s⁻¹	0.000338 ± 8.3e-05 s⁻¹	–
G13U A42C A48U A53C G60C	< 1e-05 s⁻¹	< 1e-05 s⁻¹	–
C11U G32U A33C	< 1e-05 s⁻¹	< 1e-05 s⁻¹	–
A6C C8G U54C	< 1e-05 s⁻¹	–	–
G9C A12C C58U	< 1e-05 s⁻¹	< 1e-05 s⁻¹	–
A48C U56G G60A C61G	< 1e-05 s⁻¹	–	–
A14G G44U U46A	0.000181 ± 4.5e-05 s⁻¹	0.000253 ± 8.6e-05 s⁻¹	–
G29U A33C U49G A64U	< 1e-05 s⁻¹	–	–
C61U C68G	4.29e-05 ± 1.5e-05 s⁻¹	–	–
C10A G44A G59U	< 1e-05 s⁻¹	–	–
G44A C50U G63U	< 1e-05 s⁻¹	–	–
G35A G60U C70G	< 1e-05 s⁻¹	< 1e-05 s⁻¹	–
A12U U31G U45G A53U	0.00024 ± 6.1e-05 s⁻¹	0.00101 ± 0.00033 s⁻¹	–
U55A C58U C61A C67A	8.67e-05 ± 2.1e-05 s⁻¹	–	–
A6U A12G A14U	< 1e-05 s⁻¹	–	–
G7U C11A C50G C70U	0.000451 ± 0.00011 s⁻¹	0.000157 ± 3.1e-05 s⁻¹	0.00016 ± 3.1e-05 s⁻¹

Variant	self-cleavage kobs at 640 uM GlcN6P (glucosamine-6-phosphate [1])	self-cleavage kobs at 2500 uM GlcN6P (glucosamine-6-phosphate [2])	self-cleavage kobs at 10000 uM GlcN6P (glucosamine-6-phosphate [3])
G13A A52C G63U	< 1e-05 s⁻¹	–	–
G7C A12C G32A C50A G60U	< 1e-05 s⁻¹	–	–
U55A G60C U65A	< 1e-05 s⁻¹	< 1e-05 s⁻¹	–
C11A A12U U47A	0.000122 ± 2.6e-05 s⁻¹	–	–
A6U A15G A48U	< 1e-05 s⁻¹	–	–
A14C C50A C61A	4.16e-05 ± 1.7e-05 s⁻¹	–	–
A48C U49G C50A	< 1e-05 s⁻¹	–	–
C16U A36U G38U U46G	< 1e-05 s⁻¹	< 1e-05 s⁻¹	< 1e-05 s⁻¹
A15U C16U A39C	5.94e-05 ± 1.6e-05 s⁻¹	–	–
U31C U56A	0.00164 ± 0.00028 s⁻¹	0.00201 ± 0.00053 s⁻¹	–
C11A G35U C71G	< 1e-05 s⁻¹	< 1e-05 s⁻¹	–
A15U C16G G37C	< 1e-05 s⁻¹	–	–
C10G C67G C68U	0.0001 ± 4.2e-05 s⁻¹	7.32e-05 ± 3e-05 s⁻¹	2.77e-05 ± 1.3e-05 s⁻¹
A12U G13A G29A U45G	< 1e-05 s⁻¹	< 1e-05 s⁻¹	–
G9A U46C C67U	< 1e-05 s⁻¹	–	–
A39G U45G C71U	0.00169 ± 0.0004 s⁻¹	0.0041 ± 0.0017 s⁻¹	–
G32U U46G C50G	0.000215 ± 4.7e-05 s⁻¹	9.4e-05 ± 3.4e-05 s⁻¹	–
C16A G38U C67G	0.0005 ± 0.00011 s⁻¹	–	–
C10U A12U C50U C70U	0.000161 ± 6.4e-05 s⁻¹	–	–
G32U U56A C67A	0.000114 ± 2.4e-05 s⁻¹	0.000294 ± 8.2e-05 s⁻¹	–
A33U A52G C68G C71G	0.000207 ± 7.3e-05 s⁻¹	9.93e-05 ± 4e-05 s⁻¹	–
G7A G32A U49G	< 1e-05 s⁻¹	–	–
G51A A53G C71A	< 1e-05 s⁻¹	–	–

Variant	self-cleavage kobs at 640 uM GlcN6P (glucosamine-6-phosphate [1])	self-cleavage kobs at 2500 uM GlcN6P (glucosamine-6-phosphate [2])	self-cleavage kobs at 10000 uM GlcN6P (glucosamine-6-phosphate [3])
G13C A39G U57C A64U C67U C70U	< 1e-05 s⁻¹	–	–
C8U U55G G60U	< 1e-05 s⁻¹	–	–
C50G A64U C70U	0.000173 ± 5.1e-05 s⁻¹	0.000192 ± 4.3e-05 s⁻¹	–
G35A G43C C68A	< 1e-05 s⁻¹	< 1e-05 s⁻¹	–
U2A G44U	0.000101 ± 1.5e-05 s⁻¹	0.000228 ± 6.3e-05 s⁻¹	–
A14C A36U A42G	< 1e-05 s⁻¹	< 1e-05 s⁻¹	< 1e-05 s⁻¹
U30G U31C A39U	0.000202 ± 6.1e-05 s⁻¹	–	0.00122 ± 0.00026 s⁻¹
G13U A36G U47C	< 1e-05 s⁻¹	–	–
G35U U57C	< 1e-05 s⁻¹	< 1e-05 s⁻¹	–
U31C G37A C70G	< 1e-05 s⁻¹	–	–
C11U A15U G38U G41U U57A	< 1e-05 s⁻¹	< 1e-05 s⁻¹	–
C8A A12G G32A	< 1e-05 s⁻¹	–	< 1e-05 s⁻¹
C8G G29A G51C G59U	< 1e-05 s⁻¹	–	–
G9A C11A A39U G41A A42U C50A U57G	< 1e-05 s⁻¹	< 1e-05 s⁻¹	–
G32U G51A U57A	< 1e-05 s⁻¹	< 1e-05 s⁻¹	–
A12C G38A A52U	< 1e-05 s⁻¹	–	–
C11U U54G G59A	0.00194 ± 0.00054 s⁻¹	0.00627 ± 0.002 s⁻¹	–
A6U G35A C70U	< 1e-05 s⁻¹	–	–
G9A C61G C68A	< 1e-05 s⁻¹	< 1e-05 s⁻¹	–
C16U C61A G63U	< 1e-05 s⁻¹	–	–
G38C C50G C67G	6.94e-05 ± 1.3e-05 s⁻¹	0.000141 ± 4.2e-05 s⁻¹	–
C10A G51A	< 1e-05 s⁻¹	–	< 1e-05 s⁻¹
U47C C67A	0.000623 ± 0.00018 s⁻¹	0.000286 ± 9.8e-05 s⁻¹	0.000244 ± 8e-05 s⁻¹

Variant	self-cleavage kobs at 640 uM GlcN6P (glucosamine-6-phosphate [1])	self-cleavage kobs at 2500 uM GlcN6P (glucosamine-6-phosphate [2])	self-cleavage kobs at 10000 uM GlcN6P (glucosamine-6-phosphate [3])
G38U C58U C67U C70U C71A	9.38e-05 ± 3.9e-05 s⁻¹	–	–
A6C A15U G29A A53G	< 1e-05 s⁻¹	–	–
G7A G44U C67G	< 1e-05 s⁻¹	–	–
G37U G41A G63U A64G	< 1e-05 s⁻¹	–	–
U31C C34A G59U	< 1e-05 s⁻¹	< 1e-05 s⁻¹	–
A12C G32U A64G C70U	< 1e-05 s⁻¹	–	–
C16G A33C G38U A52U	< 1e-05 s⁻¹	–	–
C16G G29A A39C	0.000119 ± 2.9e-05 s⁻¹	0.00027 ± 6.6e-05 s⁻¹	–
U30G G40C A53G G62C	< 1e-05 s⁻¹	–	–
A14U A48G G63C	< 1e-05 s⁻¹	–	–
A14C U30A G63A C67A	< 1e-05 s⁻¹	–	–
G38U A42G A53U	< 1e-05 s⁻¹	–	–
G51A G63U C70G	7.13e-05 ± 2.7e-05 s⁻¹	–	–
U45A A48C G60U C67U	< 1e-05 s⁻¹	–	–
G43C U46G U56G	< 1e-05 s⁻¹	–	–
G35C A39C A52U G60C G63U	< 1e-05 s⁻¹	< 1e-05 s⁻¹	–
G13C G38U U56G G63U U69C	< 1e-05 s⁻¹	< 1e-05 s⁻¹	–
A48C C50G C67U C68U	0.000151 ± 3.3e-05 s⁻¹	0.000255 ± 8.7e-05 s⁻¹	–
A6G G13C G32A G66U	< 1e-05 s⁻¹	< 1e-05 s⁻¹	–
